B1: MMP-1 (protein)
chain: FVLTEGNPRWEQTHLTYRIENYTPDLPRADVDHAIEKAFQLWSNVTPLTFTKVSEGQADIMISFVRGDHRDNSPFDGPGGNLAHAFQPGPGIGGDAHFDEDERWTNNFREYNLHRVAAHELGHSLGLSHSTDIGALMYPSYTFSGDVQLAQDDIDGIQAIYGRSQNPVQPIGPQTPKACDSKLTFDAITTIRGEVMFFKDRFYMRTNPFYPEVELNFISVFWPQLPNGLEAAYEFADRDEVRFFKGNKYWAVQGQNVLHGYPKDIYSSFGFPRTVKHIDAALSEENTGKTYFFVANKYWRYDEYKRSMDPGYPKMIAHDFPGIGHKVDAVFMKDGFFYFFHGTRQYKFDPKTKRILTLQKANSWFNCRKN
B2: MMP-7 (protein)
chain: YSLFPNSPKWTSKVVTYRIVSYTRDLPHITVDRLVSKALNMWGKEIPLHFRKVVWGTADIMIGFARGAHGDSYPFDGPGNTLAHAFAPGTGLGGDAHFDEDERWTDGSSLGINFLYAATHELGHSLGMGHSSDPNAVMYPTYGNGDPQNFKLSQDDIKGIQKLYGKRSNSRKK

Legend:
[1] = target: AxCT mask27 EpCAM H90.2 NCLV
[2] = target: AxCT mask27 EGFR EH104 L070 version 1
[3] = target: AxCT mask27 EGFR EH104 L059 version 1
[4] = target: AxCT mask27 EGFR EH104 L073 version 1
[5] = target: AxCT mask27 EGFR EH104 L055 version 1
[6] = target: AxCT mask27 EpCAM H90.2 L075 version 1
[7] = target: AxCT mask27 EGFR EH104 L064 version 1
[8] = target: AxCT mask27 EpCAM H90.2 L043 version 1
[9] = target: AxCT mask27 EpCAM H90.2 L041 version 1
[10] = target: AxCT mask27 EGFR EH104 L058 version 1
[11] = target: AxCT mask27 EpCAM H90.2 L064 version 1
[12] = target: AxCT mask27 EGFR EH104 L001 version 1
[13] = target: AxCT mask27 EGFR EH104 L041 version 1
[14] = target: AxCT mask27 EpCAM H90.2 L061 version 1
[15] = target: AxCT mask27 EGFR EH104 L063 version 1
[16] = target: AxCT mask27 EpCAM H90.2 L073 version 1
[17] = target: AxCT mask27 EGFR EH104 L060 version 1
[18] = target: AxCT mask27 EGFR EH104 L066 version 1
[19] = target: AxCT mask27 EpCAM H90.2 L063 version 1
[20] = target: AxCT mask27 EpCAM H90.2 L076 version 1
[21] = target: AxCT mask27 EGFR EH104 L057 version 1
[22] = target: AxCT mask27 EGFR EH104 L067 version 1
[23] = target: AxCT mask27 EGFR EH104 L054 version 1
[24] = target: AxCT mask27 EGFR EH104 L040 version 1
[25] = target: AxCT mask27 EGFR EH104 L043 version 1
[26] = target: AxCT mask27 EGFR EH104 L072 version 1
[27] = target: AxCT mask27 EpCAM H90 L001 version 1
[28] = target: AxCT mask27 EGFR EH104 L068 version 1
[29] = target: AxCT mask27 EGFR EH104 L061 version 1
[30] = target: AxCT mask27 EpCAM H90.2 L040 version 1
[31] = target: AxCT mask27 EpCAM H90.2 L059 version 1
[32] = target: AxCT mask27 EGFR EH104 L071 version 1
[33] = target: AxCT mask27 EpCAM H90.2 L060 version 1
[34] = target: AxCT mask27 EGFR EH104 L065 version 1
[35] = target: AxCT mask27 EGFR EH104 L069 version 1
[36] = target: AxCT mask27 EGFR EH104 L056 version 1
[37] = target: AxCT mask27 EGFR EH104 L062 version 1

| Protein | Percent cleavage [1] [%] | Percent cleavage [2] [%] | Percent cleavage [3] [%] | Percent cleavage [4] [%] | Percent cleavage [5] [%] | Percent cleavage [6] [%] | Percent cleavage [7] [%] | Percent cleavage [8] [%] | Percent cleavage [9] [%] | Percent cleavage [10] [%] | Percent cleavage [11] [%] | Percent cleavage [12] [%] | Percent cleavage [13] [%] | Percent cleavage [14] [%] | Percent cleavage [15] [%] | Percent cleavage [16] [%] | Percent cleavage [17] [%] | Percent cleavage [18] [%] | Percent cleavage [19] [%] | Percent cleavage [20] [%] | further results |
| --- | --- | --- | --- | --- | --- | --- | --- | --- | --- | --- | --- | --- | --- | --- | --- | --- | --- | --- | --- | --- | --- |
| B1 | 0 | 0 | 0 | 0 | 10 | 0 | 0 | 0 | 0 | 0 | 0 | 40 | 0 | 0 | 0 | 0 | 0 | 6 | 0 | 0 | Percent cleavage [21]: 7%; Percent cleavage [22]: 0%; Percent cleavage [23]: 0%; Percent cleavage [24]: 6%; Percent cleavage [25]: 0%; Percent cleavage [26]: 0%; Percent cleavage [27]: 48%; Percent cleavage [28]: 0%; Percent cleavage [29]: 0%; Percent cleavage [30]: 0%; Percent cleavage [31]: 0%; Percent cleavage [32]: 0%; Percent cleavage [33]: 0%; Percent cleavage [34]: 10%; Percent cleavage [35]: 0%; Percent cleavage [36]: 6%; Percent cleavage [37]: 0% |
| B2 | 0 | 9 | 0 | 27 | 67 | 0 | 28 | 0 | 0 | 0 | 32 | 71 | 0 | 35 | 37 | 43 | 9 | 0 | 48 | 0 | Percent cleavage [21]: 0%; Percent cleavage [22]: 0%; Percent cleavage [23]: 24%; Percent cleavage [24]: 0%; Percent cleavage [25]: 0%; Percent cleavage [26]: 0%; Percent cleavage [27]: 92%; Percent cleavage [28]: 0%; Percent cleavage [29]: 26%; Percent cleavage [30]: 0%; Percent cleavage [31]: 0%; Percent cleavage [32]: 30%; Percent cleavage [33]: 9%; Percent cleavage [34]: 60%; Percent cleavage [35]: 0%; Percent cleavage [36]: 6%; Percent cleavage [37]: 25% |

From US20240336909
